From patent US20150104459A1 (published 2015)

Target: recombinant soluble homotrimeric HA, A/common magpie/Hong Kong/5052/07 (H5N1) (influenza A virus A/common magpie/Hong …)
Experiment: microarray, trimeric HA, transfection supernatant

B1: TCN-560 (5084_P10) (antibody, V domains shown)
VH: EVQLVESGGGLVQPGGSLRLSCAASGFIFRNYWMSWVRQAPGKGLEWVANIKQDGREKYYVDSLRGRVNISRDNAENSLYLHMNSLRVEDTAVYFCARARMVVVTGDGFDVWGHGTMVTVSS
VL: DIQMTQSPSSLSASVGDRVTITCRASQNIKRYFNWYQQKPGKAPKLLIYAASNLENGVPSRFSGSGSGTDFTLTISSLQPEDFATYYCQQSFSKSWTFGQGTNVDIK
- Trimeric HA Binding RLU: 30500 RLU

B2: TCN-556 (5089_K12) (antibody, V domains shown)
VH: QVQLVQSGAEVKKPGASVKVSCKASGYTFIGYDMHWVRQAPGQGLEWMGWINAKRGGTNYAQKFQGRVTMTRDTSISTAYMELNSLRSDDTAVYYCARGVGSRTTIFGVLNPEFDYWGQGTLVTVSS
VL: QSALTQPPSASGSPGQSVTISCTGSSSDVGGYDYVSWYQQHPGKAPKLLIYEVTKRPSGVPDRFSGSKSGNTASLTVSGLQAEDEADYYCSSYAGNYNHVFGPGTKVTVL
- Trimeric HA Binding RLU: 20100 RLU
